Legend:
SLC2A9, Q9NRM0-1 = biological target: T1, SLC2A9, Q9NRM0-1
T1 sequence: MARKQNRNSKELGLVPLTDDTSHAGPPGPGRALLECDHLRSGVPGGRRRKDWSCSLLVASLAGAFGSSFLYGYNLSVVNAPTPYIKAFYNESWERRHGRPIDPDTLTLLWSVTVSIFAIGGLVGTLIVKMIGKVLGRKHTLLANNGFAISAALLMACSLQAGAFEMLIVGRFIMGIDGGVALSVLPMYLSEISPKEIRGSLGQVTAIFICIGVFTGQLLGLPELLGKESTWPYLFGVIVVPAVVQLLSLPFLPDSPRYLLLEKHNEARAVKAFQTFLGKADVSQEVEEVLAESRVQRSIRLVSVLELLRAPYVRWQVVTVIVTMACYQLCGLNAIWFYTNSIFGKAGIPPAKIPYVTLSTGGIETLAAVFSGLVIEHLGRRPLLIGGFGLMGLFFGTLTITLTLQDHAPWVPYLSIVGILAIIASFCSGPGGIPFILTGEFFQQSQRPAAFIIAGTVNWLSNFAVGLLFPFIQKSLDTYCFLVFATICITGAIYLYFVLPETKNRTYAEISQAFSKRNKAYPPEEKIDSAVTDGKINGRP

SLC2A9, Q9NRM0-2 = biological target: T2, SLC2A9, Q9NRM0-2
T2 sequence: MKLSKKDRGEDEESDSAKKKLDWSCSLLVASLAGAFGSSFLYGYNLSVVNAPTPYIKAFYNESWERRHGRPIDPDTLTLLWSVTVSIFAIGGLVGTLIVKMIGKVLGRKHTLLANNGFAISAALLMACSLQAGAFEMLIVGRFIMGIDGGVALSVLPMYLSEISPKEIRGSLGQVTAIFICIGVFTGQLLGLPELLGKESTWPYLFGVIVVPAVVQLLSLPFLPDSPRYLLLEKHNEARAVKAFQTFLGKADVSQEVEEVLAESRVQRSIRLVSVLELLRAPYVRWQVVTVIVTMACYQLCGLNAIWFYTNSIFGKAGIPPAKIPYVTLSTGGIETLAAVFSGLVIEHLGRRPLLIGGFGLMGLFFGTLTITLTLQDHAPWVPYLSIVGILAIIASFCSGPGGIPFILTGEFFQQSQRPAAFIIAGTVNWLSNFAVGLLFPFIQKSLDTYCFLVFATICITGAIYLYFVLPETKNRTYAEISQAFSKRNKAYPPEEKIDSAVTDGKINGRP

Row | effect of a mutation on the interaction (SLC2A9, Q9NRM0-1) | effect of a mutation on the interaction (SLC2A9, Q9NRM0-2) | Substance
1 | with no effect | with no effect | Integral membrane protein 2B (Homo sapiens) (from UniProt Q9Y287) E261A
2 | decreasing interaction strength |  | Integral membrane protein 2B (Homo sapiens) (from UniProt Q9Y287) N170Q

From IntAct's records for PubMed 31695625
